For this assay, the target named is Clathrin triskelions (bovine (purified from bovine brain), UniProt P49951 1-1675). Put plainly: SPR.
Chain of Clathrin triskelions (P49951 whole entry): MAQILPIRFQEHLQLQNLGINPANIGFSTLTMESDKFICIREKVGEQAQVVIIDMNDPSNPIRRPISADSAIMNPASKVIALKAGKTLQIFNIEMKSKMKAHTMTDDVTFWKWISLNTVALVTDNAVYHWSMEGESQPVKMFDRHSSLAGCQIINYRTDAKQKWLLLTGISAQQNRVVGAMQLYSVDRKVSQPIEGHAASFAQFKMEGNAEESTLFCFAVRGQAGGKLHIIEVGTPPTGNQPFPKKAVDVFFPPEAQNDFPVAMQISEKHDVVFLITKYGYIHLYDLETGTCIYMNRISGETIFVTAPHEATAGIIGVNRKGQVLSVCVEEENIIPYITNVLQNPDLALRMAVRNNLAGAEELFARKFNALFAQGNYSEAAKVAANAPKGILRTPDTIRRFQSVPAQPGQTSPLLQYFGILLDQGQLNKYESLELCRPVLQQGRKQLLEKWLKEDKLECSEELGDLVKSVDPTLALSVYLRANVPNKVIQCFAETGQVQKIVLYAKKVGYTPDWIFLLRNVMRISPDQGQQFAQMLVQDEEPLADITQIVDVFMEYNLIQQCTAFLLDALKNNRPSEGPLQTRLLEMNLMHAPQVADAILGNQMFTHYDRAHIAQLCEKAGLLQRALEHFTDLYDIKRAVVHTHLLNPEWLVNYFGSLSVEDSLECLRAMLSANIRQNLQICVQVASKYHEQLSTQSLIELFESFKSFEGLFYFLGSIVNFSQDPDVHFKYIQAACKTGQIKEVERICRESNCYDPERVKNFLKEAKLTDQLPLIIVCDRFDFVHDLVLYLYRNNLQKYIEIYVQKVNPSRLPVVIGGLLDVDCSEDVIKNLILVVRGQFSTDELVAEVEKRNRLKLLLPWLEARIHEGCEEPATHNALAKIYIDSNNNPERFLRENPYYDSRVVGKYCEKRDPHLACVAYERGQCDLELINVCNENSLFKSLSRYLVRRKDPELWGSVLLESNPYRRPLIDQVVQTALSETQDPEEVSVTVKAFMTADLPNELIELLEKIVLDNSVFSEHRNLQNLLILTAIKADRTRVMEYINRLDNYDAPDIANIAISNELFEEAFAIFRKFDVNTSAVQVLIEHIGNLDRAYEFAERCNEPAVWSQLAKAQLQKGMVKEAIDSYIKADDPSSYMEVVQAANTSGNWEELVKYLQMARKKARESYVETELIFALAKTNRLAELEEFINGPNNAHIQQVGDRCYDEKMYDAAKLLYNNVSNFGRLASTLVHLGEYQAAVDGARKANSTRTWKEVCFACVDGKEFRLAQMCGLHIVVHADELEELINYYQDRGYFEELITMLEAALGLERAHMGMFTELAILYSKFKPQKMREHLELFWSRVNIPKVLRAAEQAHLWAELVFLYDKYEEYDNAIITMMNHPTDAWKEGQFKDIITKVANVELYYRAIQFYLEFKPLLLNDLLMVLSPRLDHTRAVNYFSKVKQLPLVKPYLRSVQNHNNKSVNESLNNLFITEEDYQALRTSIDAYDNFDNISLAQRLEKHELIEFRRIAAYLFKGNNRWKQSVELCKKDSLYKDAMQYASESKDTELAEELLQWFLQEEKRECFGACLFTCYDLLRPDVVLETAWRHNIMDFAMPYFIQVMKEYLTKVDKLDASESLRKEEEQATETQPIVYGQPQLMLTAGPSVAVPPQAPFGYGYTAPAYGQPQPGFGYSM

With PWDLW [GFP-Wbox], the Kd came out at 3.9 µM.

What is called Kd is the free concentration of one partner at which half of the binding sites on the other are occupied at equilibrium, for simple one-to-one binding. Higher therefore signals a looser complex.

Source of the values: paper PMC5131575 (Biomaterials, 2016).
